Test results: US20130280735A1

Biological target: ICAM-1 (COS cell transfectants) (UniProt P05362)
Assay: FACS of COS transfectants, one transfection out of at least five attempts

UniProt P05362, sequence (P05362 28-532 limits assumed): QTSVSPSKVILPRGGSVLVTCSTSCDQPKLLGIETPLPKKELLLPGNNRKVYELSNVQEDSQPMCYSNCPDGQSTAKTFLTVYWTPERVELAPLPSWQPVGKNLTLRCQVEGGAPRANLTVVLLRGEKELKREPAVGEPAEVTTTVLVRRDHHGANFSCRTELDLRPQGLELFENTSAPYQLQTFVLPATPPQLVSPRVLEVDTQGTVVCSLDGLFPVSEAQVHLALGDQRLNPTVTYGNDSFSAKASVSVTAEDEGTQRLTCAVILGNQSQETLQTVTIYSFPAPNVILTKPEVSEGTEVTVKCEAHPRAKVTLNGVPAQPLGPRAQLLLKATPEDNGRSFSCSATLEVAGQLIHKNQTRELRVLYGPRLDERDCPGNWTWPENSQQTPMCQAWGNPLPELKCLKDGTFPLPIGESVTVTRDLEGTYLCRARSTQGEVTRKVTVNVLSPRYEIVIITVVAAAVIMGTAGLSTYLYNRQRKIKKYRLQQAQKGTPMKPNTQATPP

- % binding: 36%
Substance: Fc-CD33Rg (from UniProt P20138 18-259) (Fc fusion)
